Measurements taken from the domain aggregation screens of Martell et al. (2025).

Experiment: soluble fraction after stress (log2 fold change); higher = more stays soluble; pooled small domains, quantitative proteomics
Conditions: stress: 50 degC
Procedure, shortened: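 The stress applied to every library was 50°C. These custom libraries of small protein domains were pooled and measured at high throughput with quantitative proteomics as the read-out. Aggregation propensity is expressed as the base-two logarithm of the fold change in how much of each protein remains soluble. The higher the value, the more of that protein stays in solution.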

For “HMSTTGIVKWFNEEKGFGFITQDQGGADVFVHYRAIASEGFKTLAEGQKVSFEVEQGQKGLQAANVQA”, which “soluble fraction (log2)” value is on record?
Its value is 0.0843.

For “HMIKDSKAAYKILGVDENATNEEIKKAYRQLVINHHPDKVSHLGEDIQRAANEKLKQINAAYDEIKKQRGF”, which “soluble fraction (log2)” value is on record?
Its value is 0.237.

Which “soluble fraction (log2)” value does the source give for “HMELLTNPLTGREVEVLTLMALGQTNHEIARQLYLATGTVKAHTSSIYRKLDVANRTEAVARARQLGIL” here?
Its value is -1.1.

For “HMLLSHTAQREGELLTFLRGELALSSGLVKRLKWQNAFFLDGAPVHTNARVKPGQEITVRIEE”, which “soluble fraction (log2)” value is on record?
The value was -0.143.

With “HMAIRLIKASREFNVGISTIVEFLEKKGHAIDSDPNSKIPDELYQLIEKEFQTEGSVKKAAKQI” as the sequence, how does the “soluble fraction (log2)” value read?
Its value is -0.0914.

With “HMNSEEINDVRKAVDELPTHLREILLLNYFQQMSYVQISDSLEIPLGTVKSRLHAAVAAFRNAWQSSQEE” as the sequence, how does the “soluble fraction (log2)” value read?
Its value is -0.617.

With “HMSSRSLSYSDFIERVDAGQVSKVVMDGERLVVVGQDGTSYVTIKPPGDQVTENLSRELISKGVEVEAEPQ” as the sequence, how does the “soluble fraction (log2)” value read?
The value was 0.0107.

Which “soluble fraction (log2)” value does the source give for “HMFGGIEFGWSQLPDGRVEYIIQLDDQAIAALKNGRSLTSSLPPEVQNADRIRIQYGAGPVEKGLLLQ” here?
The value was 0.0674.

Which “soluble fraction (log2)” value does the source give for “HMTSAIAEGTVIRLTQSTNIRESMSEDAPKVATAFSGEKVTVIMSYAEGWTKVTYGDKTGYIKTELL” here?
Its value is -0.184.

With “HMRRMAYLVGQRGLAMGDFISGTGQVRIGDTVWRAEAVEGELVRTGDTVVVEGAKMTTAIVRRVM” as the sequence, how does the “soluble fraction (log2)” value read?
Its value is -0.351.

Which “soluble fraction (log2)” value does the source give for “HMVDALYGQGARVMRDFSEGSGIVKLDNGETWTGRLSPAASGASLYVGDRVIVTRIDGAIAEVTPP” here?
The value was -0.0539.

With “HMEEFLSFIADILEVDKNTLTLETSQDDVETWDSLMQLRLLGEIEAKYGVMIPMERISTIKKLNDFYQYIK” as the sequence, how does the “soluble fraction (log2)” value read?
Its value is -0.513.

For “HMARRTPPPTVSELNALLRVAAPHIQRVILLGIYTGARIGPSELFSLKWDDVDLTRGVIGIRL”, which “soluble fraction (log2)” value is on record?
Its value is -0.0306.

Which “soluble fraction (log2)” value does the source give for “HMDYRSMSGLQKAALLIMSVGEETAAKLFQLMHDDEIREISQTMANLGTVNATVIERLFVEFADAISS” here?
Its value is -0.966.

Which “soluble fraction (log2)” value does the source give for “HMDPYLSGLLQKLAETDKKISFTRLRSEDLDGESREAIYEFIEKYSGRFGVRWLLNEFGLSPSVYYNYLHS” here?
The value was -0.741.

Which “soluble fraction (log2)” value does the source give for “HMSKPIREVAYETLKNAIVTGEIPAGSRIVETEYAERMHISRTPLREALRKLERDGLVEYVVRRGVVVRAF” here?
The value was -1.54.

With “HMNIVKGDTTANVRVVQQRLYNLGYYTYKVDGIWGTRTKTAVKKFQKDKGLVADGIVGAKTEKALGITLT” as the sequence, how does the “soluble fraction (log2)” value read?
The value was -1.29.

For “HMEAEDLRDWVGARGIAYTALRPAGIAVVNGRRVDVVSEGAFVNRDDPVEVVRVEGRRIVVKP”, which “soluble fraction (log2)” value is on record?
Its value is -0.143.

With “HMEGVTVPDVTRISLDEAEELLTSYGLRFEVADRRANSAFPGNYVIDQAPSAEVIVKPNRKIYLTVNAA” as the sequence, how does the “soluble fraction (log2)” value read?
The value was -0.134.

For “HMEISTEVPLRGGTISEEALEALNRLPGVTASNIDGKSISVDVADNAELRVSDINQVLAVHSPDTRV”, which “soluble fraction (log2)” value is on record?
The value was 0.209.

Which “soluble fraction (log2)” value does the source give for “HMEMTEDEITKQFDAMEREAKKEIDTGADKRAFMYGVSRTAAGMAGKNPKYARFITDKAKEVIENIAKYK” here?
Its value is 0.108.

Which “soluble fraction (log2)” value does the source give for “HMSGLVPAIGTKGEEGYIRESDIPGSNVKNPEEALAYMEWLKTQPSELLIPLYDEQGNVIGQFAVS” here?
The value was 0.07.

For “HMKEGGREEMSEIVERYGDERALMANITSVQNLMNNMKWTLDQALDALGIKGKERTLITQQLQ”, which “soluble fraction (log2)” value is on record?
Its value is -0.147.

For “HMTLDEFTDLMNLFKTGHIEQKPVILYGYNYWTSLKSWFEFNNMKFPEMYIDGIINTVDEFKILYNKIF”, which “soluble fraction (log2)” value is on record?
The value was -0.982.

Which “soluble fraction (log2)” value does the source give for “HMAHETIDVAALRVGMFVQLDLGWLSHPFPLSSFRISSEDQIATIRALGLKRVRWSSEQSDS” here?
Its value is -4.29.

For “HMLVGGPDTPSKVTVSFDLGSRQAVDELTERAGAAGGRIGDIDDYPFMYQRQFDDPDGYHYSPFWMKP”, which “soluble fraction (log2)” value is on record?
Its value is -0.149.

With “HMSDSGLPLPRFVSLGDDRVNARAGPGFRFPINWVYLRKNFPVEVIDEFGHWRRIKDIDGIEGWIHLSML” as the sequence, how does the “soluble fraction (log2)” value read?
The value was -0.775.

With “HMSFSPYLVRVSITDLNIRKGPGTNYAKTGKFTGKGVFTIVEMQTGKGSDTGWGRLKSGAGWISLDYTEKI” as the sequence, how does the “soluble fraction (log2)” value read?
The value was -3.

For “HMDIANEQEQIFITAMRNDDFNPILELKMKGYQPSKNVLKSLQPDVSSTTFIAAAKIFQMEGVL”, which “soluble fraction (log2)” value is on record?
Its value is -0.144.

For “HMDTLESYVKRLEKLEGIADSFKGVSKAFALQAGREIRIMVESEKITDEEAVWLSKDIARRIENELEYPG”, which “soluble fraction (log2)” value is on record?
Its value is -0.378.

For “HMLAEEAFNKQAATAGYVYRDGSYHPAASVAQYDAMPRNYRTNTMAQELSRSQVESQLQQSQ”, which “soluble fraction (log2)” value is on record?
The value was 0.436.

With “HMDNAILQELYDYYKEDPSLSQSELIISMLTRIQEAVGYVSKDVQEEVARLAGVNRGYVAAIIKNLPHL” as the sequence, how does the “soluble fraction (log2)” value read?
Its value is -0.747.

For “HMDVLKVFSHNVRRYRTQLGLSQETVAFRTGLHRTYISAVERGKRSISLDNIQKIADALEVETYLLFI”, which “soluble fraction (log2)” value is on record?
The value was -1.72.

For “HMDILPEGNYKVNYDVIDEVGNIVANKNDIVVTEKSIKPLNTILGIDLYEVIHSQTGKYFTINGDNLTN”, which “soluble fraction (log2)” value is on record?
Its value is -0.00162.

Which “soluble fraction (log2)” value does the source give for “HMPKELAPYDILARYYLTVNNSKQSIALLEQYLDKAGSAPAALKAKLLLAGILYPSGNKERAEKLVEEVIK” here?
Its value is -0.465.

For “HMHGESISVPDLRGQKMERMPAFLADKHLQFKVIDSLFDLEKNPGTVLEQDPAPNSKVKEGRTIYLTVNAQ”, which “soluble fraction (log2)” value is on record?
Its value is -0.022.

Which “soluble fraction (log2)” value does the source give for “HMGAARRFEMSEGGSQKFWEVAVEGPALTVRFGKLGTAGTTQTKTLASAEAAAKEADKLVREKTKKGYAP” here?
Its value is 0.222.

For “HMLLTEETLPQLKQIVDEFPYFQIARMLYLKNLAVLNDIRFSVELKKMSIYVPDRRKLFTLIEGE”, which “soluble fraction (log2)” value is on record?
The value was 0.00426.
